Source: article PMC11574021, “CEP192 localises mitotic Aurora-A activity by priming its interaction with TPX2” (The EMBO Journal, 2024)
Where a chain is given by its changes, count along the chain named. Numbers in names are those of the source. Each block holds one molecule with its values, some of them ahead of it. Where no end group is shown, it is not given here. FAM = 5(6)-carboxyfluorescein

Columns and labels:
[1] = test system: Aurora-A; settings: cited from earlier work; for effect on Aurora-A activity: ADP-Glo based assay, ref Park et al. 2023 Figure 3 F-H
Text: page 22: have elected to test PLK1 localization. In the absence of a direct test, they could nevertheless refer to the observations of Joukov et al. We find that PLK1 localisation is normal in ∆11 cells and have include d this new data (Fig. EV8) -Figure 5A-B: The scheme could be made clearer. Why is CEP192 depicted in blue and grey in panel A, green and grey in panel B (grey in scheme of excision sites). Why not use color consistently? […] We have ch ...

[2] = target: T1, human CEP192 468–533 (human, UniProt Q8TEP8 468-533); experiment: ITC; 250 μM Aurora-A in the syringe, 25 μM CEP192 construct in the cell; 25 °C; 20 mM tris pH 7.5, 200 mM NaCl, 10% glycerol, 5 mM MgCl2
T1 construct: also called CEP192_(506-527_F); source: E. coli B834 RIL, purified (HisTrap, TEV cleavage, SEC); for crystallisation co-expressed with Aurora-A^M7KD and co-purified; not shown: His6, N-terminal, cleaved; SUMO, N-terminal, cleaved
T1 sequence (looked up): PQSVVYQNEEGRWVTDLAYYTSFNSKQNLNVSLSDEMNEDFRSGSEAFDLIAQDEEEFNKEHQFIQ

[3] = target: FAM-CEP192 501–533 (human) (UniProt Q8TEP8); experiment: fluorescence polarisation; direct fluorescence anisotropy: Aurora-A diluted across the plate, 50 nM tracer FAM-CEP192 501–533; 25 mM HEPES pH 7.5, 150 mM NaCl, 2 mM DTT, 5 mM MgCl2, 0.01% Tween 20; 1 h at room temperature
[4] = target: T2, Aurora-A^CAKD (Aurora-A kinase domain, aa 122–403 C290A, C393A), unphosphorylated (human, UniProt O14965 122-403, C290A | C393A); experiment: fluorescence polarisation; competition: 25 μM Aurora-A kinase domain preincubated with 100 nM FAM-TACC3 522-536, CEP192 competitor serially diluted; 25 mM HEPES pH 7.5, 150 mM NaCl, 2 mM DTT, 5 mM MgCl2, 0.01% Tween 20; settings: both partners purified
T2 construct: Aurora-A kinase domain, human, residues 122-403, variant lacking surface cysteines; also called Aurora-A 122–403 C290A C393A; unphosphorylated Aurora-A^CAKD; source: E. coli RIL, co-expressed with lambda phosphatase, purified (HisTrap, TEV cleavage, SEC); not shown: His6, N-terminal, cleaved
T2 sequence (looked up): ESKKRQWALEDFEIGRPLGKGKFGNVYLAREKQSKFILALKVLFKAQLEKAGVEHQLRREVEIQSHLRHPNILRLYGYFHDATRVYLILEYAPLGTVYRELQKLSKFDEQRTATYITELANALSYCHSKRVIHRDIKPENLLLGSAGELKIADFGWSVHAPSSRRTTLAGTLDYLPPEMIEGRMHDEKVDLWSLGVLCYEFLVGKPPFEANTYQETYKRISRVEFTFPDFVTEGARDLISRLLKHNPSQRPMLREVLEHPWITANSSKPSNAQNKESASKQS

[5] = target: T2, Aurora-A^CAKD (Aurora-A kinase domain, …); experiment: fluorescence polarisation; competition: 10 μM unphosphorylated Aurora-A^CAKD preincubated with 100 nM FAM-TPX2 7-43, CEP192 competitor serially diluted; 25 mM HEPES pH 7.5, 150 mM NaCl, 2 mM DTT, 5 mM MgCl2, 0.01% Tween 20; settings: both partners purified
[6] = target: T3, unphosphorylated Aurora-A CAKD (Homo sapiens, UniProt O14965, C290A/C393A); experiment: Fluorescence anisotropy competition with FAM-CEP192 501-533, unphosphorylated Aurora-A; assay type: binding; settings: competition with 100 nM FAM-CEP192 501-533, 10 μM unphosphorylated Aurora-A CAKD, n = 3
T3 construct: 10 μM Aurora-A kinase domain (phosphorylated or unphosphorylated C290A C393A 122–403); His (N, cleaved yes); made in house; host or cells: E. coli RIL, co-expressed with lambda phosphatase
T3 sequence (O14965 122-403 C290A/C393A): T2 sequence (looked up)
Protocol: (§1) Assays were performed in 25 mM HEPES pH 7.5, 150 mM NaCl, 2 mM DTT, 5 mM MgCl2, 0.01% Tween 20. For CEP192 and TPX2 competition assays 10 μM Aurora-A kinase domain (phosphorylated or unphosphorylated C290A C393A 122–403) was preincubated on ice with 100 nM FAM-TPX2 7-43 or 100 nM FAM-CEP192 501–533. For TACC3 competition, due to weaker binding, 25 μM Aurora-A kinase domain (phosphorylated or unphosphorylated C290A C393A 122–403) was preincubated with 100 nM FAM-TACC3 522-536. Serial dilutions of competitor (CEP192) were performed in triplicate into a low volume 384-well black plate, before the premixed Aurora-A and tracer were added. A control row included no tracer. Plates were left incubating for 1 h at room temperature before the fluorescence anisotropy was measured using a HIDEX plate reader, with excitation at 485 nm and emission at 535 nm. For direct binding experiments, the assay was performed as above, but the Aurora-A (122–403 C290A C393A or point mutants) was diluted across the plate from high to low concentration, before the addition of 50 nM tracer (FAM-CEP192 501–533) to three replicate rows. Buffer only was added to the control row.
(§2) Fluorescence anisotropy data were processed using Microsoft Excel to calculate intensity and anisotropy using the equation listed in (Yeo et al, [2013]). The IC50 and Kd values were calculated using Origin (OriginLab) where the data fitted to a sigmoid and are summarised in Appendix Table S3.

[7] = target: T4, phosphorylated Aurora-A CAKD (Homo sapiens, UniProt O14965, C290A/C393A); experiment: ADP-Glo kinase assay, kemptide substrate; assay type: biochemical
T4 construct: 10 nM Aurora-A 122–403 C290A C393A phosphorylated protein; His (N, cleaved yes); made in house; host or cells: E. coli B834 (no lambda phosphatase)
T4 sequence (O14965 122-403 C290A/C393A): T2 sequence (looked up)
Protocol: Reactions were initiated by the addition of 10 μM ATP and 100 μM kemptide as substrate (Cambridge Bioscience Ltd). The reactions were incubated at room temperature for 60 min before 5 μl was transferred into 5 ul of ADP-Glo Reagent (Promega) in a 384-well low volume low binding plate (Greiner Bio-one). After a further 40 min at room temperature, 10 μl of kinase detection reagent was added to each well, and the reaction was allowed to incubate for an additional 30 min. Luminescence was measured on a HIDEX Sense plate reader (HIDEX) using a 1 s integration time. Control data was subtracted from the luminescence and three repeats were averaged before being fitted to a sigmoidal plot using Origin (OriginLab), where IC50 and EC50 values were calculated.

[8] = target: T4, phosphorylated Aurora-A CAKD; experiment: Fluorescence anisotropy competition with FAM-CEP192 501-533, phosphorylated Aurora-A; assay type: binding; settings: competition with 100 nM FAM-CEP192 501-533, 10 μM phosphorylated Aurora-A CAKD, n = 3
Protocol: as §1, §2

- IC50 [4]: 29 µM
B1: CEP192 501–533 peptide (unlabelled) (peptide, UniProt Q8TEP8 501-533, looked up)
peptide: SDEMNEDFRSGSEAFDLIAQDEEEFNKEHQFIQ
notes: Probably synthesised as the labelled peptides (Rink amide resin); source: peptide

- binding result [4]: binds
B2: FAM-TACC3 522-536 (peptide, UniProt Q9Y6A5 522-536, looked up)
peptide: {FAM}-EESFRDPAEVLGTGA
notes: Made on Rink amide resin and labelled on resin after synthesis, so N-terminal label and C-terminal amide are likely; source: synthetic peptide

- binding result [5]: binds
B3: FAM-TPX2 7-43 (peptide, UniProt Q9ULW0 7-43, looked up)
peptide: {FAM}-SYSYDAPSDFINFSSLDDEGDTQNIDSWFEEKANLEN
notes: TPX2, residues 7-43; Made on Rink amide resin and labelled on resin after synthesis, so N-terminal label and C-terminal amide are likely; source: synthetic peptide

- IC50 [6]: 6.9 µM
- IC50 ([7]; 10 nM phosphorylated Aurora-A CAKD, 10 μM ATP, 100 μM kemptide, 60 min, n = 3): > 1 µM
- IC50 [8]: 5.39 µM
B5: CEP192 468-533 Y487A/F490A: CEP192 468-533 mutant, two F-pocket residues replaced with alanine (protein)
chain: T1 sequence (looked up) with Y20A, F23A
modifications: left off: His6, N-terminal, cleaved | SUMO, N-terminal, cleaved
notes: CEP192 468-533 mutant, two F-pocket residues replaced with alanine
- effect on Aurora-A kinase activity ([7]; ADP-Glo, phosphorylated Aurora-A CAKD, kemptide, in words): less potent and less complete

- IC50 [6]: > 10 µM
- IC50 [8]: > 10 µM
B7: CEP192 468-533 F508D/I518D/F525D: CEP192 468-533 triple mutant (protein, UniProt Q8TEP8 468-533, looked up, variant F508D I518D F525D)
chain: T1 sequence (looked up) with F41D, I51D, F58D

More lines, now with the values behind:

Molecule: CEP192 506-536: short CEP192 fragment used by Park et al 2023 (EDFRSGSEAFDLIAQDEEEFNKEHQFIQEEN; UniProt Q8TEP8 506-536, looked up, fragment)
- effect on Aurora-A activity [1]: no effect seen

Molecule: Aurora-A^KD F165D/R205A (Aurora-A 122–403 R205A F165D) (from UniProt O14965 122-403) (domain or fragment)
- Kd [2]: 26 µM
- stoichiometry N [2]: 0.87

Molecule: Aurora-A^KD R151A (Aurora-A 122–403 R151A) (from UniProt O14965 122-403) (domain or fragment)
- Kd [3]: > 10 µM

Molecule: Aurora-A^KD F165D (Aurora-A 122–403 F165D) (from UniProt O14965 122-403) (domain or fragment)
- Kd [3]: > 5 µM

B4: CEP192 1-995: longer CEP192 fragment used by Park et al 2023 (protein, UniProt Q8TEP8 1-995, looked up, fragment)
chain: MEDFRGIAEESFPSFLTNSLFGNSGILENVTLSSNLGLPVAVSTLARDRSSTDNRYPDIQASYLVEGRFSVPSGSSPGSQSDAEPRERLQLSFQDDDSISRKKSYVESQRLSNALSKQSALQMETAGPEEEPAGATESLQGQDLFNRASPLEQAQDSPIDFHLQSWMNNKEPKIVVLDAGKHFEDKTLKSDLSHTSLLENEKLILPTSLEDSSDDDIDDEMFYDDHLEAYFEQLAIPGMIYEDLEGPEPPEKGFKLPTNGLRQANENGSLNCKFQSENNSSLISLDSHSSETTHKESEESQVICLPGTSNSIGTGDSRRYTDGMLPFSSGTWGTEKEIENLKGIVPDLNSECASKDVLVKTLRAIDVKLNSDNFHDANANRGGFDLTDPVKQGAECPHQNKTVLHMDGCLDTETPTVSIQENVDVASLKPISDSGINFTDAIWSPTCERRTCECHESIEKNKDKTDLPQSVVYQNEEGRWVTDLAYYTSFNSKQNLNVSLSDEMNEDFRSGSEAFDLIAQDEEEFNKEHQFIQEENIDAHNTSVALGDTSWGATINYSLLRKSRSTSDLDKDDASYLRLSLGEFFAQRSEALGCLGGGNNVKRPSFGYFIRSPEKREPIALIRKSDVSRGNLEKEMAHLNHDLYSGDLNEQSQAQLSEGSITLQVEAVESTSQVDENDVTLTADKGKTEDTFFMSNKPQRYKDKLPDSGDSMLRISTIASAIAEASVNTDPSQLAAMIKALSNKTRDKTFQEDEKQKDYSHVRHFLPNDLEKSNGSNALDMEKYLKKTEVSRYESALENFSRASMSDTWDLSLPKEQTTQDIHPVDLSATSVSVRAPEENTAAIVYVENGESENQESFRTINSSNSVTNRENNSAVVDVKTCSIDNKLQDVGNDEKATSISTPSDSYSSVRNPRITSLCLLKDCEEIRDNRENQRQNECVSEISNSEKHVTFENHRIVSPKNSDLKNTSPEHGGRGSEDEQESFRPSTSPLSHSS
- effect on Aurora-A activity [1]: no effect seen

B6: CEP192 468-533 F490D/F508D/I518D: CEP192 468-533 variant replacing hydrophobic residues recognising two regions of N-lobe (protein)
chain: T1 sequence (looked up) with F23D, F41D, I51D
modifications: left off: His6, N-terminal, cleaved | SUMO, N-terminal, cleaved
notes: CEP192 468-533 variant replacing hydrophobic residues recognising two regions of N-lobe
- IC50 [6]: > 10 µM
- IC50 [8]: > 10 µM

B8: CEP192 521-757: recombinant GST-tagged CEP192 521-757 with the Xenopus CEP192 binding site (Joukov et al 2010) (protein, UniProt Q8TEP8 521-757, looked up, fragment)
chain: DEEEFNKEHQFIQEENIDAHNTSVALGDTSWGATINYSLLRKSRSTSDLDKDDASYLRLSLGEFFAQRSEALGCLGGGNNVKRPSFGYFIRSPEKREPIALIRKSDVSRGNLEKEMAHLNHDLYSGDLNEQSQAQLSEGSITLQVEAVESTSQVDENDVTLTADKGKTEDTFFMSNKPQRYKDKLPDSGDSMLRISTIASAIAEASVNTDPSQLAAMIKALSNKTRDKTFQEDEKQK
modifications: GST tag
- effect on Maskin/TACC3 phosphorylation by Aurora-A ([1]; Xenopus egg extract, ref Joukov et al. (2010) Figure 4C): lower levels of Maskin/TACC3 phosphorylation
- effect on Aurora-A autophosphorylation at Thr288 and Histone H3 phosphorylation ([1]; recombinant GST-tagged CEP192, western blot, ref Joukov et al. (2010) Figure 3G): prevents autophosphorylation of Aurora-A at Thr288
